Data: publication PMC8809517, “Cofactor-independent RNA editing by a synthetic S-type PPR protein”
Residue numbers refer to the chain shown, from its start.

T1: GFP-9S library array, motif 4 ND N98W;D124R (synthetic construct, N98W;D124R)
T1 chain: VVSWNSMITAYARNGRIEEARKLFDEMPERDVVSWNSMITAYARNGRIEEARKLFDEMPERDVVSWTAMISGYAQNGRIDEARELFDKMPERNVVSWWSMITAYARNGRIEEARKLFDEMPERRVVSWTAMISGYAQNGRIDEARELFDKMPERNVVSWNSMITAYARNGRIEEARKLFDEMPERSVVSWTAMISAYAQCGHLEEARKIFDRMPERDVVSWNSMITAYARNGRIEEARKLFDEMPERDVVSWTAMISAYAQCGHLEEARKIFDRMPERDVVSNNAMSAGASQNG

T2: GFP-9S library array, motif 4 ND N98C;D124K (synthetic construct, N98C;D124K)
T2 chain: T1 chain with W98C, R124K

T3: GFP-9S library array, motif 4 ND D124W (synthetic construct, D124W)
T3 chain: T1 chain with W98N, R124W

T4: GFP-9S library array, motif 4 ND N98I;D124A (synthetic construct, N98I;D124A)
T4 chain: T1 chain with W98I, R124A

T5: GFP-9S library array, motif 4 ND N98I;D124N (synthetic construct, N98I;D124N)
T5 chain: T1 chain with W98I, R124N

B1: Cy5-rpoA-G (ssRNA)
RNA: AUUAGACGUGA
B2: Cy5-rpoA (ssRNA)
RNA: AUUACACGUGA
B3: IR-rpoA-U (ssRNA)
RNA: AUUAUACGUGA
B4: IR-rpoA-A (ssRNA)
RNA: AUUAAACGUGA

Experiments:
Assay in all cases: high-throughput RNA pulldown from lysate on Ni-NTA beads; HRP: 50 mM Tris pH 8, 150 mM NaCl, 1 mM beta-mercaptoethanol, 50 ug/ml BSA, 3 ug/ml yeast RNA, 0.5% heparin; ITC and FP: Tris pH 8, 200 mM KCl, 5% glycerol; MST: 50 mM Tris pH 8, 200 mM NaCl, 1 mM DTT, BSA, heparin, 0.05% Tween 20
Details in all cases: tags: N-terminal His-eGFP
[1] = target: T1, GFP-9S library array, motif 4 ND …
[2] = target: T2, GFP-9S library array, motif 4 ND …
[3] = target: T3, GFP-9S library array, motif 4 ND D124W
[4] = target: T4, GFP-9S library array, motif 4 ND …
[5] = target: T5, GFP-9S library array, motif 4 ND …

Binder	Kd ([1]; label: 5' Cy5) [nM]	Kd ([2]; label: 5' Cy5) [nM]	Kd ([3]; label: 5' Cy5) [nM]	Kd ([4]; label: 5' Cy5) [nM]	Kd ([5]; label: 5' Cy5) [nM]	Kd ([1]; label: 5' IRDye 800CW) [nM]	Kd ([2]; label: 5' IRDye 800CW) [nM]	Kd ([3]; label: 5' IRDye 800CW) [nM]	Kd ([4]; label: 5' IRDye 800CW) [nM]	Kd ([5]; label: 5' IRDye 800CW) [nM]
B1	90.3	91.1	89.4	259	117					
B2	113	96.2	78.7	213	96.4					
B3						317	139	210	757	18.2
B4						206	66.3	164	620	150
